Earlier results on one substance are cited in paper PMC12930849.

A word on the pKa: it is the pH at which an ionisable group is half protonated.

Where “and” joins values, the source holds several entries; their conditions need not be identical. Identical values can stand only once.

Holding throughout (experiment): NMR
The target in series [1] is Asp18 (UniProt position 36, KRHGLDNYRGY).
Series [2] has as its target Glu7 (UniProt position 25, VFGRCELAAAM).
For series [3], the target named is Asp101 (UniProt position 119, KKIVSDGNGMN).
Series [4] concerns the target Cterm (UniProt position 147, IRGCRL-----).
Series [5] addresses Asp119 (UniProt position 137, RCKGTDVQAWI).
Series [6] concerns the target Asp87 (UniProt position 105, ALLSSDITASV).
The target in series [7] is His15 (UniProt position 33, AAMKRHGLDNY).
For series [8], the target named is Glu35 (UniProt position 53, CAAKFESNFNT).
The target of series [9] is Asp52 (UniProt position 70, TDGSTDYGILQ).

Take “Hen egg-white lysozyme (lysozyme C) (Gallus gallus)”: the pKa in series [1] was 2.66 ± 0.08 and 2.8 ± 0.3; in series [2], 2.85 ± 0.25 and 2.6 ± 0.2; in series [3] it was 4.09 ± 0.07 and 4.5 ± 0.1; in series [4], 2.75 ± 0.02 and 2.7 ± 0.2; in [5] it was 3.20 ± 0.09 and 3.5 ± 0.3; in [6], 2.07 ± 0.15 and 2.2 ± 0.1. In addition, the pKa in series [7] is 5.36 ± 0.07 and 5.5 ± 0.2; in series [8], 6.20 ± 0.10 and 6.1 ± 0.4; in series [9] it was 3.68 ± 0.08 and 3.6 ± 0.3.
